“And” between values parts separate entries of the source, which are not always exact repeats. Equal entries are not always repeated.
Key:
[1] = target: T1, Human CLEC12A-His (recombinant, K244 WT) (human, UniProt Q5QGZ9 65-265); assay: SPR, two-state fit (kd1); control sample
T1 construct: Made in house (Dragonfly Tx); also called hCLEC12A; hCLEC12A-His; not shown: His tag
T1 sequence: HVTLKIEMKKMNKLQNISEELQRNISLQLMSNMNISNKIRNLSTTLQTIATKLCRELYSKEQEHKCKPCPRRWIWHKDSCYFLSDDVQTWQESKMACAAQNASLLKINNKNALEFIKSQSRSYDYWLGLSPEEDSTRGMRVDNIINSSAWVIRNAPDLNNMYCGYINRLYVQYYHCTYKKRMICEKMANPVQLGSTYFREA

[2] = target: T2, mFc-hNKG2D (recombinant mFc-tagged human NKG2D dimer) (human, UniProt P26718 73-216); assay: SPR 37C, 1:1 kinetic fit, average
T2 construct: extracellular domain; Made in house; not shown: mouse Fc tag
T2 sequence (looked up): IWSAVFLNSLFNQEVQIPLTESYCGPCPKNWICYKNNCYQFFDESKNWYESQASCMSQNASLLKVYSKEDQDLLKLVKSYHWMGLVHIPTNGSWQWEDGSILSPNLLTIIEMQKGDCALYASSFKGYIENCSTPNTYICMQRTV

[3] = target: T3, Human CLEC12A expressed on cells (Ba/F3-hCLEC12A, PL21, HL60) (human, UniProt Q5QGZ9 1-265); assay: cell-based or functional assay
T3 sequence: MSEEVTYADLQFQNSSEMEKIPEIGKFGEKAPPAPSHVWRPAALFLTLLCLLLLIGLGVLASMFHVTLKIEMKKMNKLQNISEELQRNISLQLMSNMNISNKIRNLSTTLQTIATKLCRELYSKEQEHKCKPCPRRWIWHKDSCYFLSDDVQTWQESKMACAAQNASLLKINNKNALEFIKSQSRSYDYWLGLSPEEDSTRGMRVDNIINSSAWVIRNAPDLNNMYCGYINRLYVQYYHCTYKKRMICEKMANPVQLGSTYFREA

[4] = target: T4, recombinant human FcRn (human, UniProt P55899 24-297; P61769 21-119); assay: SPR 25C, pH 6.0, steady state; pH 6.0; second replicate
T4 construct: also called hFcRn

[5] = target: T5, recombinant human CD64 (human, UniProt P12314 16-288, biotinylated); assay: SPR 25C, kinetic fit
T5 construct: also called hFcγRI; hCD64

[6] = target: T6, Human CD32b (human, UniProt P31994 46-217, limits assumed, biotinylated); assay: SPR, steady state fit
T6 construct: Bought recombinant receptor; also called hFcγRIIb
T6 sequence (looked up): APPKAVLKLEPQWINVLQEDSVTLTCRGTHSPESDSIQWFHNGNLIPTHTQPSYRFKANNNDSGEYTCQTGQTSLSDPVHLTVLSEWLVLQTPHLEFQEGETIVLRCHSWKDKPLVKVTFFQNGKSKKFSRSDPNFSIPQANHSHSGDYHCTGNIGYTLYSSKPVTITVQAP

[7] = target: T7, Human CD16a V158 (human, UniProt P08637 17-208, biotinylated); assay: SPR; control sample (forced oxidation study)
T7 construct: Bought recombinant receptor; also called hCD16a (V158); hFcγRIIIa V158

[8] = target: T8, Human CLEC12A-His (human, UniProt Q5QGZ9 65-265); assay: SPR; control sample (forced oxidation study)
T8 construct: Recombinant soluble protein made in house; also called hCLEC12A-His; hCLEC12A; not shown: His tag
T8 sequence: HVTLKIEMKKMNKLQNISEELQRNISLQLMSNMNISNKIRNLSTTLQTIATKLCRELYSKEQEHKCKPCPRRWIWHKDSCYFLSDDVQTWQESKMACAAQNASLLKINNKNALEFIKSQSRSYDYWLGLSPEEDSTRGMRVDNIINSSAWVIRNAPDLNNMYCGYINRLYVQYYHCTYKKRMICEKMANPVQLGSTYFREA

[9] = target: T9, mFc-hNKG2D (human, UniProt P26718 73-216); assay: SPR; control sample (forced oxidation study)
T9 construct: extracellular domain; Recombinant mFc-tagged NKG2D dimer, made in house; also called human NKG2D; not shown: mouse Fc tag
T9 sequence (looked up): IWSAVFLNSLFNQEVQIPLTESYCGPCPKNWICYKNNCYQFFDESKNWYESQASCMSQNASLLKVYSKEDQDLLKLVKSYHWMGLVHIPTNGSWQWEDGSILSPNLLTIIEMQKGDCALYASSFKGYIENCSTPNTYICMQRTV

[10] = target: T10, Cynomolgus CD64 (cynomolgus monkey, UniProt A0A2K5U901 33-309, Probably biotinylated for capture, as in the sister examples (p-1094).); assay: SPR, cynomolgus CD64 captured; average for AB0192
T10 construct: Bought recombinant receptor; also called cFcγRI; Cynomolgus CD64 (FcγRI); not shown: The vendor's biotinylation and purification tag
T10 sequence (A0A2K5U901 entry or part of it limits assumed): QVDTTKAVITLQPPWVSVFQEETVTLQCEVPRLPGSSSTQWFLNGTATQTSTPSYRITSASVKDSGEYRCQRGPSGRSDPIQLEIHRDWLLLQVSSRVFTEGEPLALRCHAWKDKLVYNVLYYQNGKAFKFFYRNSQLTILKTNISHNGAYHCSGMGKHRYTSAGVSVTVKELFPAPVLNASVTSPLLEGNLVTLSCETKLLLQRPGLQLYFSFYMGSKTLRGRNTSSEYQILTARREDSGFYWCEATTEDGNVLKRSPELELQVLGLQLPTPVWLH

T7 sequence (P08637 17-208 F176V limits assumed): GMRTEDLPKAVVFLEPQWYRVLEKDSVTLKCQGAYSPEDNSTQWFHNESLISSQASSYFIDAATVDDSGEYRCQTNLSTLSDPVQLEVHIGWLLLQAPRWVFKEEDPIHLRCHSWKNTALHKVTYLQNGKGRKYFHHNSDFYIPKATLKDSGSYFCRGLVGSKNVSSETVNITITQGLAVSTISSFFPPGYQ
T5 sequence (P12314 16-288 limits assumed): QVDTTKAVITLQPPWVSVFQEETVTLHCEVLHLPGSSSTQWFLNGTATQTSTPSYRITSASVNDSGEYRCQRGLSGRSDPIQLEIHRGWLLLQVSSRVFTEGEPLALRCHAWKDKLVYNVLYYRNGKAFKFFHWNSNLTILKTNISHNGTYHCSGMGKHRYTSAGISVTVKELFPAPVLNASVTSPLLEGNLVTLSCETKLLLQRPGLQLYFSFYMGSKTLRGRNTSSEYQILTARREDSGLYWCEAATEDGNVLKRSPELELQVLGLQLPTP
T4 sequence (P55899 24-297 limits assumed, chain 1 of 2): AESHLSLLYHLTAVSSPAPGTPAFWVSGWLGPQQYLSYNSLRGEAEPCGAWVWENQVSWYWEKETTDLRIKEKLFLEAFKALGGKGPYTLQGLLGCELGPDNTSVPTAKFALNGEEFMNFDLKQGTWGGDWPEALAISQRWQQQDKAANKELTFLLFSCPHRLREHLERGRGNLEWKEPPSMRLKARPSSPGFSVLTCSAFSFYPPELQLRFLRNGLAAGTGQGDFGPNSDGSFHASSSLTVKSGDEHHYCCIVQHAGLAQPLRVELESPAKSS
T4 sequence (P61769 21-119 limits assumed, chain 2 of 2): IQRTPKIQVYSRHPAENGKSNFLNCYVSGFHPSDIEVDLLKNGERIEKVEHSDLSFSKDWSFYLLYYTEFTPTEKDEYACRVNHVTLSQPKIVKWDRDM

B1: AB0089 TriNKET (bispecific antibody, human IgG1, kappa)
chain: QLQLQESGPGLVKPSETLSLTCTVSGFSLTNYGLHWIRQPPGKCLEWIGVIWVGGATDYNPSLKSRVTISVDTSKNQFSLKLSSVQAADTAVYYCAKGDYGDTLDYWGQGTLVTVSSGGGGSGGGGSGGGGSGGGGSDIQMTQSPSSLSASVGDRVTITCHASQNINFWLSWYQQKPGKAPKLLIYEASNLHTGVPSRFSGSGSGTDFTLTISSLQPEDFATYYCQQSHSYPLTFGCGTKLEIKGSDKTHTCPPCPAPELLGGPSVFLFPPKPKDTLMISRTPEVTCVVVDVSHEDPEVKFNWYVDGVEVHNAKTKPREEQYNSTYRVVSVLTVLHQDWLNGKEYKCKVSNKALPAPIEKTISKAKGQPREPRVYTLPPCRDELTKNQVSLTCLVKGFYPSDIAVEWESNGQPENNYKTTPPVLVSDGSFTLYSKLTVDKSRWQQGNVFSCSVMHEALHNHYTQKSLSLSPG
heavy: EVQLVESGGGLVKPGGSLRLSCAASGFTFSSYSMNWVRQAPGKGLEWVSSISSSSSYIYYADSVKGRFTISRDNAKNSLYLQMNSLRAEDTAVYYCARGAPIGAAAGWFDPWGQGTLVTVSSASTKGPSVFPLAPSSKSTSGGTAALGCLVKDYFPEPVTVSWNSGALTSGVHTFPAVLQSSGLYSLSSVVTVPSSSLGTQTYICNVNHKPSNTKVDKKVEPKSCDKTHTCPPCPAPELLGGPSVFLFPPKPKDTLMISRTPEVTCVVVDVSHEDPEVKFNWYVDGVEVHNAKTKPREEQYNSTYRVVSVLTVLHQDWLNGKEYKCKVSNKALPAPIEKTISKAKGQPREPQVCTLPPSRDELTENQVSLTCLVKGFYPSDIAVEWESNGQPENNYKTTPPVLDSDGSFFLYSWLTVDKSRWQQGNVFSCSVMHEALHNHYTQKSLSLSPG
light: DIQMTQSPSSVSASVGDRVTITCRASQGISSWLAWYQQKPGKAPKLLIYAASSLQSGVPSRFSGSGSGTDFTLTISSLQPEDFATYYCQQGVSFPRTFGGGTKVEIKRTVAAPSVFIFPPSDEQLKSGTASVVCLLNNFYPREAKVQWKVDNALQSGNSQESVTEQDSKDSTYSLSSTLTLSKADYEKHKVYACEVTHQGLSSPVTKSFNRGEC
notes: F3' format heterodimer of three chains; human IgG1 Fc with EW-RVT and Y349C/S354C mutations; also called AB0089 Lot AB0089-002; CLEC12A TriNKET AB0089
[1]
  koff: 0.0476 s⁻¹
[2]
  Kd: 881 nM
  koff: 0.143 s⁻¹
  kon: 162000 M⁻¹ s⁻¹
[3]
  EC50, KHYG1-CD16aV cytotoxicity assay; after 4 wks 40C in CST pH 7.0: 0.16 nM
  EC50, KHYG1-CD16aV cytotoxicity assay; control sample: 0.13 nM

B2: F3'-1602 TriNKET (other)
chain: QLQLQESGPGLVKPSETLSLTCTVSGFSLTNYGLHWIRQPPGKCLEWIGVIWSGGKTDYNPSLKSRVTISKDTSKNQFSLKLSSVQAADTAVYYCAKYDYDDSLDYWGQGTLVTVSSGGGGSGGGGSGGGGSGGGGSDIQMTQSPSSLSASVGDRVTITCHASQNINFWLSWYQQKPGKAPKLLIYEASNLHTGVPSRFSGSGSGTRFTLTISSLQPEDIATYYCQQSHSYPLTFGCGTKLEIKGSDKTHTCPPCPAPELLGGPSVFLFPPKPKDTLMISRTPEVTCVVVDVSHEDPEVKFNWYVDGVEVHNAKTKPREEQYNSTYRVVSVLTVLHQDWLNGKEYKCKVSNKALPAPIEKTISKAKGQPREPRVYTLPPCRDELTKNQVSLTCLVKGFYPSDIAVEWESNGQPENNYKTTPPVLVSDGSFTLYSKLTVDKSRWQQGNVFSCSVMHEALHNHYTQKSLSLSPG
heavy: EVQLVESGGGLVKPGGSLRLSCAASGFTFSSYSMNWVRQAPGKGLEWVSSISSSSSYIYYADSVKGRFTISRDNAKNSLYLQMNSLRAEDTAVYYCARGAPIGAAAGWFDPWGQGTLVTVSSASTKGPSVFPLAPSSKSTSGGTAALGCLVKDYFPEPVTVSWNSGALTSGVHTFPAVLQSSGLYSLSSVVTVPSSSLGTQTYICNVNHKPSNTKVDKKVEPKSCDKTHTCPPCPAPELLGGPSVFLFPPKPKDTLMISRTPEVTCVVVDVSHEDPEVKFNWYVDGVEVHNAKTKPREEQYNSTYRVVSVLTVLHQDWLNGKEYKCKVSNKALPAPIEKTISKAKGQPREPQVCTLPPSRDELTENQVSLTCLVKGFYPSDIAVEWESNGQPENNYKTTPPVLDSDGSFFLYSWLTVDKSRWQQGNVFSCSVMHEALHNHYTQKSLSLSPG
light: DIQMTQSPSSVSASVGDRVTITCRASQGISSWLAWYQQKPGKAPKLLIYAASSLQSGVPSRFSGSGSGTDFTLTISSLQPEDFATYYCQQGVSFPRTFGGGTKVEIKRTVAAPSVFIFPPSDEQLKSGTASVVCLLNNFYPREAKVQWKVDNALQSGNSQESVTEQDSKDSTYSLSSTLTLSKADYEKHKVYACEVTHQGLSSPVTKSFNRGEC
notes: CLEC12A scFv-Fc, NKG2D A49MI Fab-Fc, human IgG1 Fc; also called AB0237
[4]
  Kd: 1100 nM
[5]
  Kd: 5.2 nM and 5.3 nM
  koff: 0.00027 s⁻¹ and 0.00028 s⁻¹ and 0.00026 s⁻¹
  kon: 53000 M⁻¹ s⁻¹ and 52000 M⁻¹ s⁻¹ and 51000 M⁻¹ s⁻¹

B3: AB0192 TriNKET (other)
chain: EVQLVESGGGVVQPGGSLRLSCAASGFTFNAFGMHWVRQAPGKCLEWVAFISSGSTSIYYANTVKGRFTISRDNSKNTLYLQMNSLRAEDTAVYYCARDGYPTGGAMDYWGQGTSVTVSSGGGGSGGGGSGGGGSGGGGSDIQMTQSPSSLSASVGDRVTITCKASQDIYNYLSWFQQKPGKAPKPLIYRANILVSGVPSRFSGSGSGQDYTFTISSLQPEDIATYYCLQFDAFPFTFGCGTKLEIKGSDKTHTCPPCPAPELLGGPSVFLFPPKPKDTLMISRTPEVTCVVVDVSHEDPEVKFNWYVDGVEVHNAKTKPREEQYNSTYRVVSVLTVLHQDWLNGKEYKCKVSNKALPAPIEKTISKAKGQPREPRVYTLPPCRDELTKNQVSLTCLVKGFYPSDIAVEWESNGQPENNYKTTPPVLVSDGSFTLYSKLTVDKSRWQQGNVFSCSVMHEALHNHYTQKSLSLSPG
heavy: EVQLVESGGGLVKPGGSLRLSCAASGFTFSSYSMNWVRQAPGKGLEWVSSISSSSSYIYYADSVKGRFTISRDNAKNSLYLQMNSLRAEDTAVYYCARGAPIGAAAGWFDPWGQGTLVTVSSASTKGPSVFPLAPSSKSTSGGTAALGCLVKDYFPEPVTVSWNSGALTSGVHTFPAVLQSSGLYSLSSVVTVPSSSLGTQTYICNVNHKPSNTKVDKKVEPKSCDKTHTCPPCPAPELLGGPSVFLFPPKPKDTLMISRTPEVTCVVVDVSHEDPEVKFNWYVDGVEVHNAKTKPREEQYNSTYRVVSVLTVLHQDWLNGKEYKCKVSNKALPAPIEKTISKAKGQPREPQVCTLPPSRDELTENQVSLTCLVKGFYPSDIAVEWESNGQPENNYKTTPPVLDSDGSFFLYSWLTVDKSRWQQGNVFSCSVMHEALHNHYTQKSLSLSPG
light: DIQMTQSPSSVSASVGDRVTITCRASQGISSWLAWYQQKPGKAPKLLIYAASSLQSGVPSRFSGSGSGTDFTLTISSLQPEDFATYYCQQGVSFPRTFGGGTKVEIKRTVAAPSVFIFPPSDEQLKSGTASVVCLLNNFYPREAKVQWKVDNALQSGNSQESVTEQDSKDSTYSLSSTLTLSKADYEKHKVYACEVTHQGLSSPVTKSFNRGEC
notes: the condition stands under assay; also called AB0192 Lot AB0192-005
[6]
  Kd: 6500 nM and 5600 nM and 5200 nM and 7000 nM
[7]
  Kd: 177 nM
  koff: 0.0202 s⁻¹
  kon: 115000 M⁻¹ s⁻¹
[8]
  Kd: 1.68 nM
  koff: 0.00129 s⁻¹
  kon: 771000 M⁻¹ s⁻¹
[9]
  Kd: 598 nM
  koff: 0.124 s⁻¹
  kon: 208000 M⁻¹ s⁻¹
[10]
  Kd: 1.9 nM
  koff: 0.00012 s⁻¹
  kon: 62000 M⁻¹ s⁻¹
